B1: Protein SLM4 (Saccharomyces cerevisiae), P38247 (parent)
chain: MVMLHSKNVKGFLENTLKPYDLHSVDFKTSSLQSSMIITATNGGILSYATSNNDVPKNSINEINSVNNLKMMSLLIKDKWSEDENDTEEQHSNSCYPVEIDSFKTKIYTYEMEDLHTCVAQIPNSDLLLLFIAEGSFPYGLLVIKIERAMRELTDLFGYKLG
partner: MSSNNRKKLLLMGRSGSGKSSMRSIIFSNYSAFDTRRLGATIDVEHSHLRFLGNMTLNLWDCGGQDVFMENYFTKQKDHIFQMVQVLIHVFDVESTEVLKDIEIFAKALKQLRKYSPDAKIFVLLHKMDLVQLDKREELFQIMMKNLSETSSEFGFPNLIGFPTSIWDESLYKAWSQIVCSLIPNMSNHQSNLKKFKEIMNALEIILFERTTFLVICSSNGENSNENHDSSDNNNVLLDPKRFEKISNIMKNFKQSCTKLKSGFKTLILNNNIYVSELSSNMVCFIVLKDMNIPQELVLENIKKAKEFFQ
B2: Protein SLM4 (Saccharomyces cerevisiae), P38247 (parent)
chain: B1 chain
partner: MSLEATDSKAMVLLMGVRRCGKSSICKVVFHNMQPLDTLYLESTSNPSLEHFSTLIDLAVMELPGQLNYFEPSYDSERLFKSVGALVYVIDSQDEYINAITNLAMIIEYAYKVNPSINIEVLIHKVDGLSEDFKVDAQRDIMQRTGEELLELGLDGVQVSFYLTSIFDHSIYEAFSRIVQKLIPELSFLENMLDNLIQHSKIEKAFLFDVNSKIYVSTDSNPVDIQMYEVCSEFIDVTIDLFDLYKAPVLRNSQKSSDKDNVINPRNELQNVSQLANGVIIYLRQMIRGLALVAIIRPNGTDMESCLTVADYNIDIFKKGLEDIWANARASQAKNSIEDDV

Variants of: B1
Conditions: with ragab_yeast GTR1, Q00582

Variant	effect of a mutation on the interaction
N67A;N68A;K70A;M71A	decreasing interaction strength

Variants of: B2
Conditions: with ragcd_yeast GTR2, P53290

Variant	effect of a mutation on the interaction
N67A;N68A;K70A;M71A	decreasing interaction strength
